This note sets out measurements from patent KR20190044006A (dated 2019).

This test deals with 재조합 MERS-CoV S1-RBD 단백질 (MERS-CoV EMC/2012, UniProt K9N5Q8 358-606). The test is described as follows: ELISA screening of hybridoma supernatants on RBD antigen.

B1: 단일 클론 항체 AT2F7 (antibody, V domains shown)
VH: EVKLVESGGGLVKPGGSLKLSCAASGFTFSSYTMSWVRQTPEKRLEWVATISSGGSYTYYPDSVKGRFTISRDNAKNTLYLQMSSLKSEDTAMYYCTRDLYDGYFYYAMDYWGQGTSVTVSS
VL: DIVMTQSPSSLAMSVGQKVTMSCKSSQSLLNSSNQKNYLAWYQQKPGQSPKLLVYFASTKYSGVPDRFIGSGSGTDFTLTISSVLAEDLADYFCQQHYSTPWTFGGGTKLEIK
With B1, the binding result was “binds”.
